According to patent publication US8846623B2, “Cancer-targeting peptides and uses thereof in cancer treatment and diagnosis” (Academia Sinica, priority 2010, dated 2014):
Square brackets hold non-standard residues; d marks the D form. Ends that are not written are not given here. Peptide text beside a SMILES is read from it.

Columns and labels:
[1] = target: full-length recombinant GRP78 (Homo sapiens, UniProt P11021); assay: Biacore binding assay of peptides; settings: for Binding index: peptide at 50 μM, difference of RUs divided by molecular weight, normalized to the L-peptide; for binding responses in Biacore / Binding to GRP78 compared to the L-peptide: in words; for Binding to GRP78 compared to the L-peptide: Biacore
Chain of full-length recombinant GRP78 (P11021 19-654): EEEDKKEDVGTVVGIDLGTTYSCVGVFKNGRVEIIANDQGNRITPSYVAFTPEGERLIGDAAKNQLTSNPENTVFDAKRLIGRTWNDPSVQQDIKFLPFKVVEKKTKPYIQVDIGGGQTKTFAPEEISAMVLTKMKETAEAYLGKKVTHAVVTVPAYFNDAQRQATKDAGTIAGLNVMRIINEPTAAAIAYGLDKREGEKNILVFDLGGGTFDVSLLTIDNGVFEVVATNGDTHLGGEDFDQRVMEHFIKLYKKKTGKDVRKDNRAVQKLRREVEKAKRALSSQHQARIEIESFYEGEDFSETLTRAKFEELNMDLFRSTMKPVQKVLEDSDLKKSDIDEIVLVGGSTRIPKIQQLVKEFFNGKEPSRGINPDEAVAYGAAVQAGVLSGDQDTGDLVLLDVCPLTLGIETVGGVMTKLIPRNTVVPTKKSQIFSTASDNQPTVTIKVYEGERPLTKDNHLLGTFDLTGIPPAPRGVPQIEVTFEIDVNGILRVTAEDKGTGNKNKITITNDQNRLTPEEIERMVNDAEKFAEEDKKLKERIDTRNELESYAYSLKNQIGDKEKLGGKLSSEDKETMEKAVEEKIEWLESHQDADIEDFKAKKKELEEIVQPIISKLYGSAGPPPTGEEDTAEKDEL
Method: 26 candidate peptides designed by the method described in Example 1 (listed in Table 6 below) above and peptide CdL, a negative control, were synthesized by conventional chemical synthesis and subjected to the surface-plasmon-resonance based method described below to examine the binding activities of the peptides to human GRP78.
The chip NTA and HBS-P buffer were obtained from GE Healthcare. Sensor chip NTA was prepared by combining Ni-ion chelation and covalent immobilization of N-His tagged GRP78 via amine-coupling with nitrilotriacetic acid on chip NTA (FIG. 6). To immobilize GRP78 protein on sensor chip for peptide-binding assay using Biacore, the methods based on Ni-ion chelation and amine coupling reaction were combined. Sensor chip NTA was prepared by chelation followed by covalent immobilization of N-His-tagged GRP78 via amine-coupling at the nitrilotriacetic acid group on chip NTA. The sensor chip NTA, HBS-P buffer and amine coupling kits were all obtained from GE Healthcare. First, the activation of chip surface using EDC and NHS reagents for amine coupling were according to the standard procedure from manufacturer's instruction. Additionally, one-minute pulse of NiCl2 solution (500 μM) was used to attract His-tagged GRP78 to the surface of sensor chip and formed covalent bond subsequently in the condition of HBS-P buffer (pH 7.4). The resulting differences of RU were about 5,000-6,000 RU. After de-activation by ethanolamine and washed with EDTA (3 mM), the prepared sensor chip was then applied to Biacore X for binding assay. The HBS-P buffer containing 1 mM Gly was used as running buffer for binding assay. Solution of 20 mM sodium hydroxide dissolved in running buffer was used to regenerate the chip surface by one-minute pulse.
The sensor chip thus prepared was applied to Biacore X for determining the binding between the peptides and GRP78. The HBS-P buffer containing 1 mM Gly was used as a running buffer. A solution of 20 mM sodium hydroxide dissolved in the running buffer was used to regenerate chip surface by 1-minute pulses.
The binding of various peptides to GRP78 is also shown as a binding index in Table 6. The binding index represents the difference of resonance units (RUs) divided by the molecular weight of each peptide and was normalized by comparison to the L-peptide.

GRP78 = GRP78 (Homo sapiens, UniProt P11021); assay: Dissociation constant of L-peptide binding to GRP78; settings: dose-dependent binding to GRP78
Chain of GRP78 (P11021 19-654): as above

TW01 cells = assay: Flow cytometry binding of FITC-labeled peptide, TW01; assay type: cell-based; settings: Nasopharyngeal
Method: (§1) Cells were grown to 80% confluence and harvested with 5 mmol/L EDTA in PBS. Breast cancer specimens were obtained from patients who underwent initial surgery at Tri-Service General Hospital (Taipei, Taiwan). The clinical breast cancer specimens were sliced to fragments of 1 mm2 in size and subjected to enzymatic digestion by collagenase (1,000 U/mL), hyaluronidase (300 U/mL), and DNase I (100 μg/mL) at 37° C. for 2 hours. Primary breast tumor cells were collected after filtration through a 100 μm cell strainer (BD Biosciences) and re-suspended. For transplantation, tumor cells mixed with normal human breast fibroblasts and Matrigel were subcutaneously injected into mammary fat pads of female NOD/SCID mice received a sub-lethal dose of gamma irradiation in advance. After transplantation, cells of xenografted tumors were isolated and inoculated in NOD/SCID mice for serial passages. The cancer cell lines, xenograft cells, and primary breast tumor cells were re-suspended in a FACS buffer (PBS with 2% fetal bovine serum) and incubated at room temperature for 30 min with FITC-conjugated various peptides. To determine breast cancer stem cell (BCSCs) and non-breast cancer stem cell (non-BCSC) populations from xenografts, the cells were stained with a mixture of anti-H2Kd-biotin followed by streptavidin-PER-CP, anti-CD24-PE, anti-CD44-APC and FITC-conjugated various peptides. The primary breast tumor cells were stained with anti-CD45-PerCP-Cy5.5 antibodies, instead of H2Kd staining. The stained cells were then subjected to FACS analysis.

MDA-MB-231 cells = assay: Flow cytometry binding of FITC-labeled peptide, MDA-MB-231; assay type: cell-based; settings: Breast
Method: as §1

[2] = tested on: human primary breast cancer BC0145 and BC0244 engrafted in NOD/SCID mice; assay: Flow cytometry binding of FITC-labeled peptides to xenograft cells (BCSC-enriched and non-BCSC); assay type: cell-based; settings: for Binding capacities in vitro compared with L-peptide: both BCSCs and non-BCSCs
Method: To evaluate the in vitro binding abilities of cancer-targeting peptides described herein, the FITC-labeled L-peptide, P-6, P-12, P-13, and P-16 were tested for their binding activities to cancer cells, primary breast cancer engrafted in NOD/SCID mice, and clinical breast cancer specimens by a flow cytometric analysis as described below.
as §1
The binding capacities of the L-peptide and the P-6, P-12, P-13, and P-16 peptides to two xenograft samples from NOD-SCID mice transplanted with human primary breast cancer cell lines BC0145 and BC0244 were evaluated with special focus on their binding to the BCSC subpopulation enriched from the breast cancer cells. Breast cancer cells harvested from engrafted tumors were stained with H2Kd to gate out mouse cells, and stained with anti-CD24 and anti-CD44 antibodies to distinguish BCSC-enriched cells (CD24^−CD44^+) from non-BCSC cells. These cells were co-stained with one of the above-noted peptides, which was FITC-labeled and subjected to flow cytometric analysis. […] The binding abilities of these peptides to clinical breast specimens were similar to those to xenograft samples. […] FIG. 7, panel d.

| Molecule | Binding index [1] | further results |
| --- | --- | --- |
| RLLDTNRPQLVY [P-3] | <0.2 | – |
| CC(C)C[C@H](NC(=O)[C@H](CC(C)C)NC(=O)[C@@H](N)CCCNC(=N)N)C(=O)N[C@@H](CC(=O)O)C(=O)N[C@H](C(=O)N[C@@H](CC(N)=O)C(=O)N[C@@H](CCCNC(=N)N)C(=O)N1CCC[C@H]1C(=O)N[C@@H](CC(C)C)C(=O)N[C@@H](CC(C)C)C(=O)N1CCC[C@H]1C(=O)N[C@@H](Cc1ccc(O)cc1)C(=O)O)[C@@H](C)O [L-peptide] (H-RLLDTNRPLLPY-OH) | – | Kd (GRP78): 1 to 10 µM |
| RLLDTNRPNLPY [PA-4] | 0.31 | – |
| RLLDTNRPKLRY [P-16] | <0.2 | – |
| RLLDTNRPDLPY [PA-3] | <0.2 | – |
| RLLDTNRPFLWY [PB-1] | 1.6 | binding responses in Biacore [1]: significant binding responses |
| RLLDTNRPHLPY [PA-6] | 0.47 | – |
| RLLDTNRPFLPY [P-6] | 1.1~1.52 | Binding to GRP78 compared to the L-peptide [1]: bound to GRP78 better than the L-peptide; binding responses in Biacore [1]: significant binding responses; Binding ability (TW01 cells): bound; Binding ability (MDA-MB-231 cells): bound; binding capacity to BCSC-enriched cells ([2]; FITC-labeled peptide, BCSC-enriched cells isolated from the BC0145 xenograft): equivalent to P-12; Binding capacities in vitro compared with L-peptide ([2]; FITC-labeled peptides): greater binding capacities in vitro than L-peptide |
| RLLDTNRPLLPY(CONH2) (RLLDTNRPLLPY-NH2) [PB-3, L-peptide modified with the amidation (CONH2)] | 1.15 | Binding to GRP78 compared to the L-peptide [1]: did not significantly affect the binding affinity; binding responses in Biacore [1]: significant binding responses |
| RLLDTNRPELPY [PA-2] | <0.2 | – |
| RLLDTNRPSLFY [P-7] | <0.2 | – |
| RLLDTNRPQLPY [PA-5] | 0.3 | – |
| RLLDTNRPKLVY [P-2] | <0.2 | – |
| RLLDTNRPHLWY [P-12] | 1.2~3.5 | Binding to GRP78 compared to the L-peptide [1]: bound to GRP78 better than the L-peptide; binding responses in Biacore [1]: significant binding responses; Binding ability (TW01 cells): bound; Binding ability (MDA-MB-231 cells): bound; Binding capacities in vitro compared with L-peptide ([2]; FITC-labeled peptides): greater binding capacities in vitro than L-peptide |
| RLLDTNRPRLEY [P-17] | <0.2 | – |
| RLLDTNRPWLPY [PA-1] | 0.35 | Binding to GRP78 compared to the L-peptide [1]: significantly decreased the binding |
| RLLDTNRPFLFY [P-13] | 1.4~3.5 | Binding to GRP78 compared to the L-peptide [1]: bound to GRP78 better than the L-peptide; binding responses in Biacore [1]: significant binding responses; Binding ability (TW01 cells): bound; Binding ability (MDA-MB-231 cells): bound; Staining strength (order of binding) ([2]; FITC-labeled peptides, BCSC-enriched and non-BCSC cells of BC0145 and BC0244 xenografts): stained most strongly; Binding capacities in vitro compared with L-peptide ([2]; FITC-labeled peptides): greater binding capacities in vitro than L-peptide |
| RLLDTNRPPLCY [P-9] | <0.2 | – |
| RLLDTNRPMLKY [P-8] | <0.2 | – |
| RLLDTNRPYLWY [PB-2] | 3 | binding responses in Biacore [1]: significant binding responses |
| RLLDTNRPL(d-L)PY (RLLDTNRPL[dL]PY) [CdL, negative control peptide, reference compound] | <0.2 | – |
| RLLDTNRPMLMY [P-5] | <0.2 | – |
| RLLDTNRPFLKY [P-10] | <0.2 | – |
| RLLDTNRPYLKY [P-1] | <0.2 | – |
| RLLDTNRPLLGY [P-11] | 0.77 | – |
| RLLDTNRPHLKY [P-15] | <0.2 | – |
| RLLDTNRPKLFY [P-4] | <0.2 | – |
| RLLDTNRPLLLY [P-14] | 0.21 | – |
